Laboratory results reported in paper PMC5384083.

How the values were obtained:
[1] = target: CBP, endogenous (UniProt Q92793); assay: co-immunoprecipitation (IP GFP, western blot CBP), band intensity given; settings: MCF7 cells
[2] = target: CBP, endogenous (UniProt Q92793); assay: co-immunoprecipitation (IP GFP, western blot CBP) quantified with image J; settings: MCF7 cells; 3 independent experiments; parent: est. 25; read off a plot
[3] = target: DNMT3b, endogenous (UniProt Q9UBC3); assay: co-immunoprecipitation (IP GFP, western blot DNMT3b), band intensity given; settings: MCF7 cells
[4] = target: Retinoblastoma protein (Rb), endogenous (UniProt P06400); assay: co-immunoprecipitation (IP GFP, western blot Rb), band intensity given; settings: MCF7 cells
[5] = target: Retinoblastoma protein (Rb), endogenous (UniProt P06400); assay: co-immunoprecipitation (IP GFP, western blot Rb) quantified with image J; settings: MCF7 cells; 3 independent experiments; parent: est. 32; read off a plot

Chain of UniProt Q92793 (Q92793 whole entry): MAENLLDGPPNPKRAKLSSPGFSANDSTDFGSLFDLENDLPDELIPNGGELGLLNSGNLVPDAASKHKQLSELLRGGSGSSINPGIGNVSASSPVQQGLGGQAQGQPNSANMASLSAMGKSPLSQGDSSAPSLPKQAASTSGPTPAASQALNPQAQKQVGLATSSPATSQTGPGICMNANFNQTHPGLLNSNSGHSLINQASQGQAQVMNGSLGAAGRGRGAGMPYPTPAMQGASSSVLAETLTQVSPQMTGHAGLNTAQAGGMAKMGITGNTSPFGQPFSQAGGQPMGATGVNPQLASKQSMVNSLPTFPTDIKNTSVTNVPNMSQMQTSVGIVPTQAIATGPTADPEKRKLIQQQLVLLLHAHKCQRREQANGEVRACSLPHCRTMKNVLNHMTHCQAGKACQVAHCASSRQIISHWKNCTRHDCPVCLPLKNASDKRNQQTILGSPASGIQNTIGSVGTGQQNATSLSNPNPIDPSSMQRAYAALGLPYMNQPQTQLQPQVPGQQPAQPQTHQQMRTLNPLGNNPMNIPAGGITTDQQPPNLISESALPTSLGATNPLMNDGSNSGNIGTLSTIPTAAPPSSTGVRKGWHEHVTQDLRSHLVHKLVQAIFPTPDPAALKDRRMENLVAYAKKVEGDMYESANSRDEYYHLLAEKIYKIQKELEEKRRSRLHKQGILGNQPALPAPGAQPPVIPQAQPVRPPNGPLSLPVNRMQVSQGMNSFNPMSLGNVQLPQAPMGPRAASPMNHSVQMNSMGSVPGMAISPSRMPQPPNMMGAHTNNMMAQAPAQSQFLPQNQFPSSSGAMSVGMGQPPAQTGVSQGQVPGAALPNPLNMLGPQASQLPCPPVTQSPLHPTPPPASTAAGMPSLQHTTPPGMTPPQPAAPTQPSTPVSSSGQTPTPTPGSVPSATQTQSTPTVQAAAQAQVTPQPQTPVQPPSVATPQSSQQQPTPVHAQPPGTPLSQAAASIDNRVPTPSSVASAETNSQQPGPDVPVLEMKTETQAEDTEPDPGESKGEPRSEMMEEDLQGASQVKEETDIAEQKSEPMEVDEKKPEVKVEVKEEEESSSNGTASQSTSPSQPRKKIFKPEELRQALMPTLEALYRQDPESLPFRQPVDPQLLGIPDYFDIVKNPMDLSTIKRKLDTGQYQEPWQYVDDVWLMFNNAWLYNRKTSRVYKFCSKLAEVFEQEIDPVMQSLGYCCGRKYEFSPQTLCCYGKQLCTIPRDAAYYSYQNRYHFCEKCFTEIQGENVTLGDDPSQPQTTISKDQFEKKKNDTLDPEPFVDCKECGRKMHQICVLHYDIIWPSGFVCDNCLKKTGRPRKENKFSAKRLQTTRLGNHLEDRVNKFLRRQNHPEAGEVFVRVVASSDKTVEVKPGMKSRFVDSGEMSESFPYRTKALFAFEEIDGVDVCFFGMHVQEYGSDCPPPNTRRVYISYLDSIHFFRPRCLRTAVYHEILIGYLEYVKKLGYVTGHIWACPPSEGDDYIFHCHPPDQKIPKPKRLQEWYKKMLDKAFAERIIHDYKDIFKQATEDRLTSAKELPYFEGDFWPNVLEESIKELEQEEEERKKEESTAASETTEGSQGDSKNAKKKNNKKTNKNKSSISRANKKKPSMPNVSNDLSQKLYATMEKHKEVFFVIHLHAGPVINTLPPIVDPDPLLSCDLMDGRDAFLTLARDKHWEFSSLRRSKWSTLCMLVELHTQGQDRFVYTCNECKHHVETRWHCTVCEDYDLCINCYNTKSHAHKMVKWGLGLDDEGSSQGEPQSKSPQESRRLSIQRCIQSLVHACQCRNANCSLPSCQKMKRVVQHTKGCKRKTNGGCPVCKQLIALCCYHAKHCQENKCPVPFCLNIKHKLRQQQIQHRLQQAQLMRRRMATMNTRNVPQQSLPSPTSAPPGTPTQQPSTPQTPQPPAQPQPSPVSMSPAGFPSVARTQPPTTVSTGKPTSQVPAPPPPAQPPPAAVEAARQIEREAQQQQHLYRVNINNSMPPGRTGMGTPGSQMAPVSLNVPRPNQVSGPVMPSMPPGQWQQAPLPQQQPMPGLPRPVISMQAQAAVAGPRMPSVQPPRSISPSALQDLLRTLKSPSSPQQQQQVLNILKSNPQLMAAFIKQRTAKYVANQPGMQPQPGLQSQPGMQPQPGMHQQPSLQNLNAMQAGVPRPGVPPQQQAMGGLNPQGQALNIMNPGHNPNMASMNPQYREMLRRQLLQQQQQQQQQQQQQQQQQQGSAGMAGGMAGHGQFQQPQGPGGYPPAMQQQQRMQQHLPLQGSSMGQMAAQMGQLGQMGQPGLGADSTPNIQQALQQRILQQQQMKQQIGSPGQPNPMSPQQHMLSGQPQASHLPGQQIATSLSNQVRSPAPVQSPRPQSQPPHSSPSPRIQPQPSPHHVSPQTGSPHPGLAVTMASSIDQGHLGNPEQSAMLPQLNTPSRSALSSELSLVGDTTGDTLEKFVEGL
Chain of UniProt P06400 (P06400 whole entry): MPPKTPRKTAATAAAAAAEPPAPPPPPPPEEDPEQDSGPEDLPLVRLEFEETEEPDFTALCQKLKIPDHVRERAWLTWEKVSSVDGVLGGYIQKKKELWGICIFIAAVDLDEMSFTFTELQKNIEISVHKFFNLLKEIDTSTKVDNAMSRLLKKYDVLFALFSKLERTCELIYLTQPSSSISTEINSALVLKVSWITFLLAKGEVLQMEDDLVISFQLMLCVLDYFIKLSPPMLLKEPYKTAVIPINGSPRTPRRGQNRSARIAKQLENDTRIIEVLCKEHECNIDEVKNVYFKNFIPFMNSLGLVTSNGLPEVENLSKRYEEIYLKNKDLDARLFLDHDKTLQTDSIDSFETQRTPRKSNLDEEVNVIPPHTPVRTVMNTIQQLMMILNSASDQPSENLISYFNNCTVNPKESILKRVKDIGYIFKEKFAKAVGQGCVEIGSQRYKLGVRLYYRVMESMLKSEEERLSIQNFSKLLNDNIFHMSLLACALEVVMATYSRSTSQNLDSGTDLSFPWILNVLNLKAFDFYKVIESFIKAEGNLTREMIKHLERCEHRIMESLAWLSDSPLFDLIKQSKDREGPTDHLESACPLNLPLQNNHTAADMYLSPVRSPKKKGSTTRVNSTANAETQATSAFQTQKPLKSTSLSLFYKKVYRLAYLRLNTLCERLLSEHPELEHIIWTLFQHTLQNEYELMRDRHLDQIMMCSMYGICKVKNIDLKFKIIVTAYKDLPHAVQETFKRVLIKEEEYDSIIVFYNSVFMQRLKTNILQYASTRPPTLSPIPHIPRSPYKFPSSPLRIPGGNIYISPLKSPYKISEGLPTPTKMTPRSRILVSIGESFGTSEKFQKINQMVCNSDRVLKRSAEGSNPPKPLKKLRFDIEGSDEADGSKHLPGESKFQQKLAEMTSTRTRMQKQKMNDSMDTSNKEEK

| response [1] | response (fold pull down) [2] | response [3] | response [4] | response (fold pull down) [5] | Substance |
| --- | --- | --- | --- | --- | --- |
| 5.1 | 8.4 | 112 | 30.4 | 38 | GFP-FoxM1 full length (FL) T596A |
| 21 | 31 | 32.3 | 6.7 | 5.8 | GFP-FoxM1 full length (FL) S715D; S724D |
| 6 | 9.7 | 90 | 24.7 | 36 | GFP-FoxM1 full length (FL) S715A; S724A |
